Patent publication US20160272683A1 (Novo Nordisk, published 2016)
Blank lines part the entries; values can stand above or below the binder they belong to. Numbered stars: 1 amine (or outer) side, 2 acyl side, 3 side chain; on linkers, the order of the positions; unused ones are H or OH. * marks the point of attachment. C20 diacid = O=C(O)CCCCCCCCCCCCCCCCCCC(=O)*; γGlu = O=C(O)[C@H](CCC(=O)[*:2])N[*:1]

Columns and labels:
[1] = target: T1, human amylin 3(a) receptor (human calcitonin receptor co-expressed with RAMP-3) on BHK570/CRE-luc cells (human, UniProt P30988 25-474; O60896 24-148); assay: cell-based or functional assay
T1 sequence (looked up) 1: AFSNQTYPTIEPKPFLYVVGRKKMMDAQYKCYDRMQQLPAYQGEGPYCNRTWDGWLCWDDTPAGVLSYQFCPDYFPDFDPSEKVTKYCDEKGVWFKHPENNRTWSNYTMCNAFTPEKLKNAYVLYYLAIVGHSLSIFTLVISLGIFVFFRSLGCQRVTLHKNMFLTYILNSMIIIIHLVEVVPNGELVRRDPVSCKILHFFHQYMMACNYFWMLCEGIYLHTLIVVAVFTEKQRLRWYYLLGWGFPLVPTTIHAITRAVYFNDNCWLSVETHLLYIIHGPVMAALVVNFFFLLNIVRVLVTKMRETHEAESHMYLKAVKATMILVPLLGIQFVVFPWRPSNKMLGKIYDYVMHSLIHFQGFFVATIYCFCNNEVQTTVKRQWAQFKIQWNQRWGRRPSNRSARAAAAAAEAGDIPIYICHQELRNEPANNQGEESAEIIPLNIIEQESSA
T1 sequence (looked up) 2: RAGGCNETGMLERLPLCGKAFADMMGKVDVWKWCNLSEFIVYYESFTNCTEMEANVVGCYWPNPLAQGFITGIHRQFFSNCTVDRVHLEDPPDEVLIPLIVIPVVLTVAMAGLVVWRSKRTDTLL

[2] = target: T2, human calcitonin receptor on BHK570/CRE-luc cells (human, UniProt P30988 25-474); assay: cell-based or functional assay
T2 sequence (looked up): T1 sequence (looked up) 1

B2: [N-terminal(C20 diacid-gGlu), 4Q, 9V, 15Q, 21Q, 23Y, 27G, 30S, 31G, 32T, 33Y]mimylin (peptide)
peptide: {C20 diacid-γGlu}-EASQLSTAVLGRLSQELHELQTYPRTGTGSGTY-NH2
SMILES: CC(C)C[C@H](NC(=O)[C@H](CCCNC(=N)N)NC(=O)CNC(=O)[C@H](CC(C)C)NC(=O)[C@@H](NC(=O)[C@H](C)NC(=O)[C@@H](NC(=O)[C@H](CO)NC(=O)[C@H](CC(C)C)NC(=O)[C@H](CCC(N)=O)NC(=O)[C@H](CO)NC(=O)[C@H](C)NC(=O)[C@H](CCC(=O)O)NC(=O)CC[C@H](NC(=O)CCCCCCCCCCCCCCCCCCC(=O)O)C(=O)O)[C@@H](C)O)C(C)C)C(=O)N[C@@H](CO)C(=O)N[C@@H](CCC(N)=O)C(=O)N[C@@H](CCC(=O)O)C(=O)N[C@@H](CC(C)C)C(=O)N[C@@H](Cc1c[nH]cn1)C(=O)N[C@@H](CCC(=O)O)C(=O)N[C@@H](CC(C)C)C(=O)N[C@@H](CCC(N)=O)C(=O)N[C@H](C(=O)N[C@@H](Cc1ccc(O)cc1)C(=O)N1CCC[C@H]1C(=O)N[C@@H](CCCNC(=N)N)C(=O)N[C@H](C(=O)NCC(=O)N[C@H](C(=O)NCC(=O)N[C@@H](CO)C(=O)NCC(=O)N[C@H](C(=O)N[C@@H](Cc1ccc(O)cc1)C(N)=O)[C@@H](C)O)[C@@H](C)O)[C@@H](C)O)[C@@H](C)O
hAmylin-R funct. EC50 (pM), tested with HSA [1]: 546 pM
hCTR funct. EC50 (pM), tested with HSA [2]: 366 pM

B3: [N-terminal(C20 diacid-gGlu), des1, 4G, 15E, 21Q, 23Y, 30S, 31G, 32T, 33Y]mimylin (peptide)
peptide: {C20 diacid-γGlu}-ASGLSTAALGRLSEELHELQTYPRTETGSGTY-NH2
SMILES: CC(C)C[C@H](NC(=O)CNC(=O)[C@H](CO)NC(=O)[C@H](C)NC(=O)CC[C@H](NC(=O)CCCCCCCCCCCCCCCCCCC(=O)O)C(=O)O)C(=O)N[C@@H](CO)C(=O)N[C@H](C(=O)N[C@@H](C)C(=O)N[C@@H](C)C(=O)N[C@@H](CC(C)C)C(=O)NCC(=O)N[C@@H](CCCNC(=N)N)C(=O)N[C@@H](CC(C)C)C(=O)N[C@@H](CO)C(=O)N[C@@H](CCC(=O)O)C(=O)N[C@@H](CCC(=O)O)C(=O)N[C@@H](CC(C)C)C(=O)N[C@@H](Cc1c[nH]cn1)C(=O)N[C@@H](CCC(=O)O)C(=O)N[C@@H](CC(C)C)C(=O)N[C@@H](CCC(N)=O)C(=O)N[C@H](C(=O)N[C@@H](Cc1ccc(O)cc1)C(=O)N1CCC[C@H]1C(=O)N[C@@H](CCCNC(=N)N)C(=O)N[C@H](C(=O)N[C@@H](CCC(=O)O)C(=O)N[C@H](C(=O)NCC(=O)N[C@@H](CO)C(=O)NCC(=O)N[C@H](C(=O)N[C@@H](Cc1ccc(O)cc1)C(N)=O)[C@@H](C)O)[C@@H](C)O)[C@@H](C)O)[C@@H](C)O)[C@@H](C)O
hAmylin-R funct. EC50 (pM), tested with HSA [1]: 159 pM
hCTR funct. EC50 (pM), tested with HSA [2]: 57 pM

B5: [N-terminal(C20 diacid-gGlu), des1, 9V, 15Q, 21Q, 23Y, 30S, 31G, 32T, 33Y]mimylin (peptide)
peptide: {C20 diacid-γGlu}-ASELSTAVLGRLSQELHELQTYPRTETGSGTY-NH2
SMILES: CC(C)C[C@H](NC(=O)[C@H](CCCNC(=N)N)NC(=O)CNC(=O)[C@H](CC(C)C)NC(=O)[C@@H](NC(=O)[C@H](C)NC(=O)[C@@H](NC(=O)[C@H](CO)NC(=O)[C@H](CC(C)C)NC(=O)[C@H](CCC(=O)O)NC(=O)[C@H](CO)NC(=O)[C@H](C)NC(=O)CC[C@H](NC(=O)CCCCCCCCCCCCCCCCCCC(=O)O)C(=O)O)[C@@H](C)O)C(C)C)C(=O)N[C@@H](CO)C(=O)N[C@@H](CCC(N)=O)C(=O)N[C@@H](CCC(=O)O)C(=O)N[C@@H](CC(C)C)C(=O)N[C@@H](Cc1c[nH]cn1)C(=O)N[C@@H](CCC(=O)O)C(=O)N[C@@H](CC(C)C)C(=O)N[C@@H](CCC(N)=O)C(=O)N[C@H](C(=O)N[C@@H](Cc1ccc(O)cc1)C(=O)N1CCC[C@H]1C(=O)N[C@@H](CCCNC(=N)N)C(=O)N[C@H](C(=O)N[C@@H](CCC(=O)O)C(=O)N[C@H](C(=O)NCC(=O)N[C@@H](CO)C(=O)NCC(=O)N[C@H](C(=O)N[C@@H](Cc1ccc(O)cc1)C(N)=O)[C@@H](C)O)[C@@H](C)O)[C@@H](C)O)[C@@H](C)O
hAmylin-R funct. EC50 (pM), tested with HSA [1]: 142 pM
hCTR funct. EC50 (pM), tested with HSA [2]: 97 pM

B6: [N-terminal(C20 diacid-gGlu), des1, 4G, 15T, 21E, 23Y, 30S, 31G, 32T, 33Y]mimylin (peptide)
peptide: {C20 diacid-γGlu}-ASGLSTAALGRLSTELHELETYPRTETGSGTY-NH2
SMILES: CC(C)C[C@H](NC(=O)CNC(=O)[C@H](CO)NC(=O)[C@H](C)NC(=O)CC[C@H](NC(=O)CCCCCCCCCCCCCCCCCCC(=O)O)C(=O)O)C(=O)N[C@@H](CO)C(=O)N[C@H](C(=O)N[C@@H](C)C(=O)N[C@@H](C)C(=O)N[C@@H](CC(C)C)C(=O)NCC(=O)N[C@@H](CCCNC(=N)N)C(=O)N[C@@H](CC(C)C)C(=O)N[C@@H](CO)C(=O)N[C@H](C(=O)N[C@@H](CCC(=O)O)C(=O)N[C@@H](CC(C)C)C(=O)N[C@@H](Cc1c[nH]cn1)C(=O)N[C@@H](CCC(=O)O)C(=O)N[C@@H](CC(C)C)C(=O)N[C@@H](CCC(=O)O)C(=O)N[C@H](C(=O)N[C@@H](Cc1ccc(O)cc1)C(=O)N1CCC[C@H]1C(=O)N[C@@H](CCCNC(=N)N)C(=O)N[C@H](C(=O)N[C@@H](CCC(=O)O)C(=O)N[C@H](C(=O)NCC(=O)N[C@@H](CO)C(=O)NCC(=O)N[C@H](C(=O)N[C@@H](Cc1ccc(O)cc1)C(N)=O)[C@@H](C)O)[C@@H](C)O)[C@@H](C)O)[C@@H](C)O)[C@@H](C)O)[C@@H](C)O
hAmylin-R funct. EC50 (pM), tested with HSA [1]: 291 pM
hCTR funct. EC50 (pM), tested with HSA [2]: 67 pM

Further lines, results first:

hAmylin-R funct. EC50 (pM), tested with HSA [1]: 67 pM
hCTR funct. EC50 (pM), tested with HSA [2]: 36 pM
B1: [N-terminal(C20 diacid-gGlu), des1, 4Q, 9V, 15Q, 21Q, 23Y, 30S, 31Q, 32T, 33Y]mimylin (peptide)
peptide: {C20 diacid-γGlu}-ASQLSTAVLGRLSQELHELQTYPRTETGSQTY-NH2
SMILES: CC(C)C[C@H](NC(=O)[C@H](CCCNC(=N)N)NC(=O)CNC(=O)[C@H](CC(C)C)NC(=O)[C@@H](NC(=O)[C@H](C)NC(=O)[C@@H](NC(=O)[C@H](CO)NC(=O)[C@H](CC(C)C)NC(=O)[C@H](CCC(N)=O)NC(=O)[C@H](CO)NC(=O)[C@H](C)NC(=O)CC[C@H](NC(=O)CCCCCCCCCCCCCCCCCCC(=O)O)C(=O)O)[C@@H](C)O)C(C)C)C(=O)N[C@@H](CO)C(=O)N[C@@H](CCC(N)=O)C(=O)N[C@@H](CCC(=O)O)C(=O)N[C@@H](CC(C)C)C(=O)N[C@@H](Cc1c[nH]cn1)C(=O)N[C@@H](CCC(=O)O)C(=O)N[C@@H](CC(C)C)C(=O)N[C@@H](CCC(N)=O)C(=O)N[C@H](C(=O)N[C@@H](Cc1ccc(O)cc1)C(=O)N1CCC[C@H]1C(=O)N[C@@H](CCCNC(=N)N)C(=O)N[C@H](C(=O)N[C@@H](CCC(=O)O)C(=O)N[C@H](C(=O)NCC(=O)N[C@@H](CO)C(=O)N[C@@H](CCC(N)=O)C(=O)N[C@H](C(=O)N[C@@H](Cc1ccc(O)cc1)C(N)=O)[C@@H](C)O)[C@@H](C)O)[C@@H](C)O)[C@@H](C)O

hAmylin-R funct. EC50 (pM), tested with HSA [1]: 212 pM
hCTR funct. EC50 (pM), tested with HSA [2]: 99 pM
B4: [N-terminal(C20 diacid-gGlu), des1, 4G, 15Q, 21Q, 23Y, 25H, 30S, 31G, 32T, 33Y]mimylin (peptide)
peptide: {C20 diacid-γGlu}-ASGLSTAALGRLSQELHELQTYPHTETGSGTY-NH2
SMILES: CC(C)C[C@H](NC(=O)CNC(=O)[C@H](CO)NC(=O)[C@H](C)NC(=O)CC[C@H](NC(=O)CCCCCCCCCCCCCCCCCCC(=O)O)C(=O)O)C(=O)N[C@@H](CO)C(=O)N[C@H](C(=O)N[C@@H](C)C(=O)N[C@@H](C)C(=O)N[C@@H](CC(C)C)C(=O)NCC(=O)N[C@@H](CCCNC(=N)N)C(=O)N[C@@H](CC(C)C)C(=O)N[C@@H](CO)C(=O)N[C@@H](CCC(N)=O)C(=O)N[C@@H](CCC(=O)O)C(=O)N[C@@H](CC(C)C)C(=O)N[C@@H](Cc1c[nH]cn1)C(=O)N[C@@H](CCC(=O)O)C(=O)N[C@@H](CC(C)C)C(=O)N[C@@H](CCC(N)=O)C(=O)N[C@H](C(=O)N[C@@H](Cc1ccc(O)cc1)C(=O)N1CCC[C@H]1C(=O)N[C@@H](Cc1c[nH]cn1)C(=O)N[C@H](C(=O)N[C@@H](CCC(=O)O)C(=O)N[C@H](C(=O)NCC(=O)N[C@@H](CO)C(=O)NCC(=O)N[C@H](C(=O)N[C@@H](Cc1ccc(O)cc1)C(N)=O)[C@@H](C)O)[C@@H](C)O)[C@@H](C)O)[C@@H](C)O)[C@@H](C)O

hAmylin-R funct. EC50 (pM), tested with HSA [1]: 105 pM
hCTR funct. EC50 (pM), tested with HSA [2]: 54 pM
B7: [N-terminal(C20 diacid-gGlu), des1, 4G, 9V, 15Q, 21Q, 23Y, 30S, 31G, 32T, 33Y]mimylin (peptide)
peptide: {C20 diacid-γGlu}-ASGLSTAVLGRLSQELHELQTYPRTETGSGTY-NH2
SMILES: CC(C)C[C@H](NC(=O)CNC(=O)[C@H](CO)NC(=O)[C@H](C)NC(=O)CC[C@H](NC(=O)CCCCCCCCCCCCCCCCCCC(=O)O)C(=O)O)C(=O)N[C@@H](CO)C(=O)N[C@H](C(=O)N[C@@H](C)C(=O)N[C@H](C(=O)N[C@@H](CC(C)C)C(=O)NCC(=O)N[C@@H](CCCNC(=N)N)C(=O)N[C@@H](CC(C)C)C(=O)N[C@@H](CO)C(=O)N[C@@H](CCC(N)=O)C(=O)N[C@@H](CCC(=O)O)C(=O)N[C@@H](CC(C)C)C(=O)N[C@@H](Cc1c[nH]cn1)C(=O)N[C@@H](CCC(=O)O)C(=O)N[C@@H](CC(C)C)C(=O)N[C@@H](CCC(N)=O)C(=O)N[C@H](C(=O)N[C@@H](Cc1ccc(O)cc1)C(=O)N1CCC[C@H]1C(=O)N[C@@H](CCCNC(=N)N)C(=O)N[C@H](C(=O)N[C@@H](CCC(=O)O)C(=O)N[C@H](C(=O)NCC(=O)N[C@@H](CO)C(=O)NCC(=O)N[C@H](C(=O)N[C@@H](Cc1ccc(O)cc1)C(N)=O)[C@@H](C)O)[C@@H](C)O)[C@@H](C)O)[C@@H](C)O)C(C)C)[C@@H](C)O
